The source of these data is the DeepSol protein solubility set.

This data set can be described thus: soluble on expression in E. coli; label from the status in PepcDB or PDB records.
On to “MGSDKIHHHHHHMIETRQKQERVILIGVALPNSENFDLSMEELASLAKTAGAEVVQTHTQKRDHYDSKSFIGSGKLLEIKQIIATDAIDSVIVNNRLTPRQNAYLEAELGVKVIDRMQLILDIFAMRARSHEGKLQVHLAQLKYMLPRLVGQGIMLSRQAGGIGSRGPGESQLELNRRSIRKQIADIERQLKNAEKNRETNREKRLDSQIFKIGLIGYTNAGKSTIMNVLTDNKQYEADELFATLDATTKQIYLTDHFQATLTDTVGFIQDLPTELVAAFKSTLEESRQVDLLLHVIDASDPNHEEHEKVVHDLLKELGMTAIPRLLVYNKMDKAENFIASQFPHISLSAKSDEAAALLRQSILEKIKTLFVPFTITWRQEKSYKLYELDKIALLTSYDVKQELQEIKGYISEKNKWRLEEFYRELS”, for which the “soluble on expression in E. coli” value was “not soluble”.

For the sequence “MGSDKIHHHHHHMSNLKPDSVIACLDCPNHVQAVLEASMWASIRLQAPIGLLYSVPSLQQKAAVDYSGCLNIDDENTLLDQFTAKEHLSNCELKAQGKRLLHQASSYCEQQRHKIKTYTLHRHEKLDESINYVDDQAQLIVIGHHVTCKSTLSQLIRSSHCPILVTHAPFLPPTSALFAFDNSPTSHKMLNWLCKTPLVRALMIHIVMVSKENSENCDALREAYARLKQAGIKCKKTLLDCRDVTSALTYYQHDNDIGLLMTGAFAQPRLIELLKGSDTKKLLGSTTTPYLLFPKA”, the “soluble on expression in E. coli” value is on record as “not soluble”.

On to “MGRRVLLSFLGLGDYEYCYYTYEGKTSTYTRFIQTAVYELFRNDEPMDVVVFATKEAQDRNGQDRKKGDKLLEGIGTAFSRIAPEANVKIVEIESGQDEQANWRLFDRIMDEIKEGDTIYFDITHSFRSIPFVALIVLNYARLVKKADIGAIIYGWFEVLGRPIDVEQMPEEQRVAPIVNLTSMAKLLDWTNGVDQFLRTGDASIIQALTAKENSEVFRNPSLSQAVKDEVKELRELTKRLDQTEKAIRTCRSLQIDEEVQKFHEQLGRVRSASAEAIKPLVPLLDVMEKKYAMFDDDPIMNSWKAVRWCLDHGLIQQALTMLEENAVTAVCRVLGLDLRNEKARGDVHSAIEILLRDIPKEEWRVRSVERVEQIIDFLSPYKGDLKRFSTLKERRNDINHAGARPQPLKAEKFWPDAEQSFRELGAFFERMSALAKSMQTVKGNG”, for which the “soluble on expression in E. coli” value is “not soluble”.

As to “MGLLAHFLKGPHKKTTLLLTRAGPVENPRHVLYSHPGLPLSPKGRSALLALLPLLQGFPVAHVYAADSLAEAEAARLFAEALGVPYTLLPELRERAWGAWEGLSFPEVEARFPGAVAAWTADEAGFAPPGGESVREAWERGRRAVKALLGKHRGQAILVVGNCTLNRAALSLALPLPPEEGLRLEQDYARLSVVDFYGEEGVVKALNLAVDWGHDPARGPQGPPGAS”, the “soluble on expression in E. coli” value is “soluble”.

As to “MGSDKIHHHHHHVILKAKVYHKVFAFKDLKEVLAKANEEKSGDVLAGIGATSASERVAAKLVLSNLTLEDLYNHPVLPYEEDEVTRVIYDGLNLRIYQEMKGWTVGQLREYILDHGTTGSHLNHISRGLTSEMIAAVAKLMSNMDLVYGSKKMRHQAHCNTTIGIPGTLAFRCQPNHPTDSVEGVMASLKEGLSYGSGDAVIGINPVEDNVDTLSRLLETVKEFMQQWEIPTQNCVLAHITTQMKAITKGVPIDLVFQSIAGTQKANEAFGISKELIDEAFALIQRNGTATGPNLMYFETGQGSEISLAAHHGVDMMTLESRTYGFGRHYRPFLLNNVSGFIGPETIYSGREVIRADLEDLFMGKLHGLPMGIAPCYTNHMKADQNDQEIATLLCAMAGANYFMGLPGGDDVMLSYQDTSYHDDAATREILGLRPLPEFEKWLEKMGIMENGQLTERAGDPSVFDK”, the “soluble on expression in E. coli” value was “not soluble”.

As to “SAMRQTPLTCSGHTRPVVDLAFSGITPYGYFLISACKDGKPMLRQGDTGDWIGTFLGHKGAVWGATLNTEATKAATAAADFTAKVWDAVTGDEVLTLAHKHIVKSVNFTQDSNYLLTGGNDKVLRIYDLSKPEAEPQEIAGHTSAIKKALWCNNDQQILSAADDKTIRLWDKNTNEAVKTLSFDASVSSMEYIPDGETLVITYGRTIAFYNAHSLDLIKTVDAPASIHSASLHPDKDFFVAGGDDFKLYKYDYTTKEEMESYKGHFGPVHCVRFSPDGELYASGSEDGTLRLWQTAVGKTYGLWKCVLPEELSSENSEALYCPPAEIKA”, the “soluble on expression in E. coli” value was “soluble”.

For the sequence “MKTRINYAKASPEAFKAVMALENYVQSSGLEHRFIHLIKLRASIINGCAFCVDMHVKESRHDGLSEQWINLMSVWRESPVYTEQERALLGWVDAVTKIAETGAPDDAFETLRAHFSDEEIVKITVAIGAINTWNRIAVGFRSQHPVEAAAKAA”, the “soluble on expression in E. coli” value is on record as “soluble”.

For “MGFPKEGEKVQIHSYKHNGSIHRMWEETTILKGTQSLVIGANDRTVVTESDGRTWITREPAICYFHANYWFNVIGMLREDGVYYYCNLSSPFAYDPEALKYIDYDLDIKVYPDMTYTLLDEDEYEKHSEIMQYPPVIDTILKRNVAHLTQWIHQRKGPFAPDFVDMWYERYLMYRN”, the “soluble on expression in E. coli” value was “not soluble”.

As for “SNRTSAKSNLMLILLGLQMKEISNSDLYKLKEVRSVVTSLASFLFQQQNVGVMKSFDSLEKEAFRDLVNRLVSQGLIGLKDKTSETFDLLPLKNLFEYAEKRISVLMKLQCYTGTVQLSHVQEKLHLPYITTNGIVDVFKECLKRTKKQYPEVLKNWWIDLDPKNGMEDQNSGILLHLEYAAAYS”, the “soluble on expression in E. coli” value was “soluble”.

“MGSDKIHHHHHHMMWEQFKKEKLRGYLEAKNQRKVDFDIVELLDLINSFDDFVTLSSCSGRIAVVDLEKPGDKASSLFLGKWHEGVEVSEVAEAALRSRKVAWLIQYPPIIHVACRNIGAAKLLMNAANTAGFRRSGVISLSNYVVEIASLERIELPVAEKGLMLVDDAYLSYVVRWANEKLLKGKEKLGRLQEALESLQRENAYCSD”: the “soluble on expression in E. coli” value is given as “soluble”.

As to “MSLALLNVDKLSVHFGDESAPFRAVDRISYSVKQGEVVGIVGESGSGKSVSSLAIMGLIDYPGRVMAEKLEFNGQDLQRISEKERRNLVGAEVAMIFQDPMTSLNPCYTVGFQIMEAIKVHQGGNKSTRRQRAIDLLNQVGIPDPASRLDVYPHQLSGGMSQRVMIAMAIACRPKLLIADEPTTALDVTIQAQIIELLLELQQKENMALVLITHDLALVAEAAHKIIVMYAGQVVETGDAHAIFHAPRHPYTQALLRALPEFAQEGHHHHHH”, the “soluble on expression in E. coli” value is reported as “not soluble”.

As for “MNVPFWTEEHVRATLPERDAESHKGTYGTALLLAGSDDMPGAALLAGLGAMRSGLGKLVIGTSENVIPLIVPVLPEATYWRDGWKKAADAQLEETYRAIAIGPGLPQTESVQQAVDHVLTADCPVILDAGALAKRTYPKREGPVILTPHPGEFFRMTGVPVNELQKKRAEYAKEWAAQLQTVIVLKGNQTVIAFPDGDCWLNPTGNGALAKGGTGDTLTGMILGMLCCHEDPKHAVLNAVYLHGACAELWTDEHSAHTLLAHELSDILPRVWKRFELEHHHHHH”, the “soluble on expression in E. coli” value is on record as “soluble”.

Turning to “DPTQSVRAYYIQNGDSTKTVIIGQGWTEHVDWIGYVSKIWYDMGYNVLMPSQRGQFLSDGDNLTFGYQDKYDWLNWVKMVDERNGADSQVVFYGQSLGADTVLEAASVPGLSKSVKAVVSDAGYATLPELGSSLYNKAITAVSNALQSIGLPAITSLPFLSYDKIVAAMNARLIKEQGFSVDDLSATDAASKITIPLLLIHTQDDAFIPYTQSLELAAANHSANQEVWILPGTVGGHAAANNAILQYRQHLLAFLTPLLSVADAED”, the “soluble on expression in E. coli” value is “not soluble”.

On to “MEKSVSVILLAGGQGKRMKMSMPKQYIPLLGQPIALYSFFTFSRMPEVKEIVVVCDPFFRDIFEEYEESIDVDLRFAIPGKERQDSVYSGLQEIDVNSELVCIHDSARPLVNTEDVEKVLKDGSAVGAAVLGVPAKATIKEVNSDSLVVKTLDRKTLWEMQTPQVIKPELLKKGFELVKSEGLEVTDDVSIVEYLKHPVYVSQGSYTNIKVTTPDDLLLAERILSEDS”, for which the “soluble on expression in E. coli” value is “soluble”.

“MDAWKEITKTTENDGVSTCSLSSIAFDPYSELVWTGHKNGQIKSSFGPSLTSYTQFIGHEGPVHQVLPQERGVFSLSSKSLRLSNRKGTIRWRYHSVPCVQRSMIILYSCFLCSKHAVLISRDSDCIDYRAMFYQSRNNPEVVIGGYHQKLTVVNAERGISIHKDKNVSDIFIMRRNRLLCCGSTNGEIILRDPNSFQPVNKVVAHTGTISDIDTSGNLLLSCGYSLRHGTYMLDPFVKVWDLRNLSSLVPIPFPAGPTIIRMHPKLSTTAVVCSCSGQFHIVDTGNPLDAKLMQIPLTSYLTGMDIASTGDAMVFTDVEDNIHLWSPLENPSFSDLKLPIQLPNTSTETVQLENNDPLNSIGLPYYKDELLSSWSKYLIFDVGKPILDSNLLIAKQISENSHPVPQEIKSFHRNQIIEVPWLNRKLISEGATPKFHSERQKDIMSGNDIEGSASYFEEIEDTISGPDSIPKFYQRPVIKYSKFGIEDFDFGFYNKTKYAGLETDITNSYCNSVLQLLSYVPSFSKAAISHSLGPCDLMECLLCELGFLFAMLKESTGRNCQATNFLRAFSNSSFAQSLGIVFDDYSDGTFPDSFVIQKFTKFMLTEISRIADYEDKKDGTSFPVSFLLKSFCIPEMQTYRCGICGITSQKIKSSLYIIDLHYPSQQLESILSFEWLFKMSLDRRVDLPPGWCEYCLAHQPFLLRSFIRSLPDCLFINTQVKHHEHWKLWARKNWLPKKLHLRRVNDTMQCVSQKISNLDKDQQSLSVYVLRGIIYEIRQNGEEPHFVSTIRVSDNTSSDNPDDNRWYIFNDFLVKEVTEEEALTVHGPWKIPIIVYYEKLDTKIPQWDEVSDYTLLYQPYSLNKNPPINKIQPLTTDEMLYPKMLVGIDSEFVALQQEETEVRSDGTKSTIKPSKLSLARVSVLRGEGPNKGLPFIDDYVATDDKVTDYLTEYSGIHPGDLDPDRSPYNVVPLKVAYKKLRLLVNAGCIFVGHGLQKDFRIINLLVPPEQVVDTVDLFFLSSRQRKLSLKFLAWYLLDEEIQLTEHDSIEDALTALKLYDCYDKLKSQGKLEETLDNIYEVGRRFKFRPPSVASMSLEDRNSYGDESVISNQTN”: the “soluble on expression in E. coli” value is reported as “soluble”.

On to “QDTSPDTLVVTANRFEQPRSTVLAPTTVVTRQDIDRWQSTSVNDVLRRLPGVDITQNGGSGQLSSIFIRGTNASHVLVLIDGVRLNLAGVSGSADLSQFPIALVQRVEYIRGPRSAVYGSDAIGGVVNIITTRDEPGTEISAGWGSNSYQNYDVSTQQQLGDKTRVTLLGDYAHTHGYDVVAYGNTGTQAQTDNDGFLSKTLYGALEHNFTDAWSGFVRGYGYDNRTNYDAYYSPGSPLLDTRKLYSQSWDAGLRYNGELIKSQLITSYSHSKDYNYDPHYGRYDSSATLDEMKQYTVQWANNVIVGHGSIGAGVDMQMQMTTPGTGYVEDGYDQRNTGIYLTGLQQVGDFTFEGAARSDDNSQFGRHGTWQTSAGWEFIEGYRFIASYGTSYKAPNLGQLYGFYGNPNLDPEKSKQWEGAFEGLTAGVNWRISGYRNDVSDLIDYDDHTLKYYNEGKARIKGVEATANFDTGPLTHTVSYDYVDARNAITDTPLLRRAKQQVKYQLDWQLYDFDMGMTMQYLGTRYDKDYSSYPYQTVKMGGVSLWDLAVAYPVTSHLTVRGKIANLFDKDYETVYGYQTAGREYTLSGSYTF”, for which the “soluble on expression in E. coli” value is “soluble”.

For “METEAIDGYITCDNELSPEREHSNMAIDLTSSTPNGQHASPSHMTSTNSVKLEMQSDEECDRKPLSREDEIRGHDEGSSLEEPLIESSEVADNRKVQELQGEGGIRLPNGERPFHCNQCGASFTQKGNLLRHIKLHSGEKPFKCPFCSYACRRRDALTGHLRTHSVGKPHKCNYCGRSYKQRSSLEEHKERCHNYLQNVSMEAAGQVMSHHVPPMEDCKEQEPIMDNNISLVPFERPAVIEKLTGNMGKRKSSTPQKFVGEKLMRFSYPDIHFDMNLTYEKEAELMQSHMMDQAINNAITYLGAEALHPLMQHPPSTIAEVAPVISSAYSQVYHPNRIERPISRETADSHENNMDGPISLIRPKSRPQEREASPSNSCLDSTDSESSHDDHQSYQGHPALNPKRKQSPAYMKEDVKALDTTKAPKGSLKDIYKVFNGEGEQIRAFKCEHCRVLFLDHVMYTIHMGCHGYRDPLECNICGYRSQDRYEFSSHIVRGEHTFH”, the “soluble on expression in E. coli” value is “soluble”.
